Where “and” joins values, the source holds several entries; their conditions need not be identical. Equal entries are not always repeated. One block for each compound: values may come before it.
Columns and labels:
PMGL3 = molecular target: T1, PMGL3 (unidentified, UniProt Z9N994FV33); experiment: esterase activity, Michaelis-Menten nonlinear regression; type: biochemical, permafrost metagenome; conditions: 50 mM Tris-HCl pH 8.0, 100 mM NaCl, 30 °C; 0.2-2 mM substrate
T1 construct: recombinant in E. coli, pET32a (stated for mutants), C-terminal hexahistidine tag; 302 residues modelled plus last 10 C-terminal residues invisible; mainly dimer in solution, tetramer in crystal; catalytic motif 147GESAG151, E243, H273
T1 sequence (Z9N994FV33 1-304): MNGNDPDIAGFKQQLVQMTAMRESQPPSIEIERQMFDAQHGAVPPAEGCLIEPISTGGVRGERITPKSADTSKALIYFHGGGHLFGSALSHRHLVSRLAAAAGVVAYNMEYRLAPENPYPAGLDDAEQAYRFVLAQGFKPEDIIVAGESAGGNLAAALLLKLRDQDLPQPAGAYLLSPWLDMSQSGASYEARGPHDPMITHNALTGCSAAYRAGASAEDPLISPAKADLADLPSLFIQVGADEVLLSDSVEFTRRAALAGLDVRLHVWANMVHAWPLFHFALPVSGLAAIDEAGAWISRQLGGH
Text: (§1) esterase activity, Michaelis-Menten nonlinear regression on PMGL3

[1] = test system: T2, CCCC(=O)Oc1ccc([N+](=O)[O-])cc1; experiment: as above; type: biochemical, permafrost metagenome; conditions: 50 mM Tris-HCl pH 8.0, 100 mM NaCl, 30 °C, 0.2-2 mM substrate
T2 construct: recombinant in E. coli, pET32a (stated for mutants), C-terminal hexahistidine tag; 302 residues modelled plus last 10 C-terminal residues invisible; mainly dimer in solution, tetramer in crystal; catalytic motif 147GESAG151, E243, H273
Text: as §1

[2] = molecular target: PMGL3 D7N mutant (not stated (Siberian permafrost metagenomic DNA library)); experiment: SEC; samples after incubation for 30 min and/or 1 h at 40 °C; Superdex 200 10/300 GL, 0.4 mL/min, 100 mM Tris-HCl pH 8.0, 150 mM NaCl
[3] = molecular target: PMGL3 D7N mutant (not stated (Siberian permafrost metagenomic DNA library)); experiment: SEC; freshly isolated samples; Superdex 200 10/300 GL, 0.4 mL/min, 100 mM Tris-HCl pH 8.0, 150 mM NaCl; column calibrated with protein standards
[4] = molecular target: PMGL3 E47Q mutant (not stated (Siberian permafrost metagenomic DNA library)); experiment: SEC; samples after incubation for 30 min and/or 1 h at 40 °C; Superdex 200 10/300 GL, 0.4 mL/min, 100 mM Tris-HCl pH 8.0, 150 mM NaCl
[5] = molecular target: PMGL3 E47Q mutant (not stated (Siberian permafrost metagenomic DNA library)); experiment: SEC; freshly isolated samples; Superdex 200 10/300 GL, 0.4 mL/min, 100 mM Tris-HCl pH 8.0, 150 mM NaCl; column calibrated with protein standards
[6] = molecular target: PMGL3 K67A mutant (not stated (Siberian permafrost metagenomic DNA library)); experiment: SEC; samples after incubation for 30 min and/or 1 h at 40 °C; Superdex 200 10/300 GL, 0.4 mL/min, 100 mM Tris-HCl pH 8.0, 150 mM NaCl
[7] = molecular target: PMGL3 K67A mutant (not stated (Siberian permafrost metagenomic DNA library)); experiment: SEC; freshly isolated samples; Superdex 200 10/300 GL, 0.4 mL/min, 100 mM Tris-HCl pH 8.0, 150 mM NaCl; column calibrated with protein standards
[8] = molecular target: cold-active esterase PMGL3, wild type (not stated (Siberian permafrost metagenomic DNA library)); experiment: SEC; sample after storage for 3 months at 4 °C; Superdex 200 10/300 GL, 0.4 mL/min, 100 mM Tris-HCl pH 8.0, 150 mM NaCl
[9] = molecular target: cold-active esterase PMGL3, wild type (not stated (Siberian permafrost metagenomic DNA library)); experiment: SEC; samples after incubation for 30 min and/or 1 h at 40 °C; Superdex 200 10/300 GL, 0.4 mL/min, 100 mM Tris-HCl pH 8.0, 150 mM NaCl
[10] = molecular target: cold-active esterase PMGL3, wild type (not stated (Siberian permafrost metagenomic DNA library)); experiment: SEC; freshly isolated samples; Superdex 200 10/300 GL, 0.4 mL/min, 100 mM Tris-HCl pH 8.0, 150 mM NaCl; column calibrated with protein standards
[11] = molecular target: cold-active esterase PMGL3, wild type (not stated (Siberian permafrost metagenomic DNA library)); experiment: as above; remark: listed apart in the source
[12] = molecular target: cold-active esterase PMGL3, wild type (not stated (Siberian permafrost metagenomic DNA library)); experiment: crystal structure; X-ray, space group C2, two subunits in the asymmetric unit; crystals from 0.1 M sodium citrate pH 5.6, 20% isopropanol, 20% PEG 4000; oligomers from crystal contact analysis (PDBePISA)
[13] = molecular target: cold-active esterase PMGL3, wild type (not stated (Siberian permafrost metagenomic DNA library)); experiment: as above; remark: listed apart in the source

Compound: PMGL3 (unidentified; D7N)
- Km [1]: 0.84 ± 0.07 mM
- Vmax [1]: 157 µmol/min/mg
- kcat [1]: 85 ± 3.15 s⁻¹

Compound: PMGL3 (unidentified; E47Q)
- Km [1]: 1.07 ± 0.09 mM
- Vmax [1]: 117 µmol/min/mg
- kcat [1]: 63.7 ± 2.07 s⁻¹

Compound: PMGL3 (unidentified; K67A)
- Km [1]: 0.94 ± 0.06 mM
- Vmax [1]: 102 µmol/min/mg
- kcat [1]: 55.5 ± 1.4 s⁻¹

Compound: PMGL3 E47Q mutant (enzyme)
- stoichiometry N [4]: 4
- stoichiometry N [5]: 4 and 2

Compound: PMGL3 K67A mutant (enzyme)
- stoichiometry N [6]: 4
- stoichiometry N [7]: 2

Next, values leading:

- Km (PMGL3): 980 ± 90 µM
Compound: CCCC(=O)Oc1ccc([N+](=O)[O-])cc1 [p-nitrophenyl butyrate]

- stoichiometry N [2]: 4
- stoichiometry N [3]: 2 and 4
Compound: PMGL3 D7N mutant (enzyme)

- stoichiometry N [8]: 4
- stoichiometry N [9]: 4
- stoichiometry N [10]: 2
- stoichiometry N [11]: 4
- stoichiometry N [12]: 2
- stoichiometry N [13]: 4
Compound: cold-active esterase PMGL3, wild type (enzyme)
